Our source for the binding result and Kd values is article PMC7797366.

One may read the Kd as the constant that tells how readily two partners part at equilibrium.

The target in one data set is T1, 2HD (Mus musculus, UniProt P61372;P50481).
T1 chain: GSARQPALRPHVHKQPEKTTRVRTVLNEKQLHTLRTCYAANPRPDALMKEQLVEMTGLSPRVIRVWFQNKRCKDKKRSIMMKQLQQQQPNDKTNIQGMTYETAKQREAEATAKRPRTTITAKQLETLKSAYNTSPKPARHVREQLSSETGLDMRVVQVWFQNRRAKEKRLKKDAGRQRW
Nature of the data set: SAXS.

The target of the next data set is T2, 2HDLL (Mus musculus, UniProt P61372;P50481).
T2 chain: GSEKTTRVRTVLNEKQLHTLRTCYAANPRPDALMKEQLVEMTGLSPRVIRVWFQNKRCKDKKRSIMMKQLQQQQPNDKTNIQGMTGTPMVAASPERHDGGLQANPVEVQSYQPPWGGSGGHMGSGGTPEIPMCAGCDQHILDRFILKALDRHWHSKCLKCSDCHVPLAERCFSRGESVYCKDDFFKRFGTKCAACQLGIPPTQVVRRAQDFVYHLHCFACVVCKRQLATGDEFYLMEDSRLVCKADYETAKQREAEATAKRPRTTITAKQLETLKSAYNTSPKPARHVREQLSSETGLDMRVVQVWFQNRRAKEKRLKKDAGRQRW
Nature of the data set: SEC-MALLS, SAXS.

Data set [1] deals with T3, LLHD3 (Mus musculus, UniProt P61372;P50481).
T3 chain: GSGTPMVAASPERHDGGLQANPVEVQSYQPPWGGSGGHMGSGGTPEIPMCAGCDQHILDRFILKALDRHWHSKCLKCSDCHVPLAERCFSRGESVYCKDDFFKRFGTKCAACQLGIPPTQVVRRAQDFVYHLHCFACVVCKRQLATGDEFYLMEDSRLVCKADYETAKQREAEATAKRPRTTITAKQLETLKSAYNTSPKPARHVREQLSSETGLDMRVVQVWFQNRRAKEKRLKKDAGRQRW
Nature of the data set: EMSA.

Data set [2] concerns the target T3, LLHD3. Nature of the data set: EMSA. A general note: Mobility shift assays separate free from complexed probe on a gel.

B1: M100 20-mer (SAXS) (dsDNA)
DNA 1: CCGCATTAGCCAAATTACGC
DNA 2: GCGTAATTTGGCTAATGCGG
In the case of B1, the binding result with 2HD and in the data set with 2HDLL was “binds” in each case.

B2: M100 (EMSA) (dsDNA)
DNA 1: CGGCCATTAGCCAAATTACGGC
DNA 2: GCCGTAATTTGGCTAATGGCCG
For the molecule B2, in the data set with LLHD3 [1], the Kd was 1000 nM.

B3: ISL1GA (dsDNA)
DNA 1: ACCGCGTAATATCTG
DNA 2: CAGATATTACGCGGT
In the case of B3, the binding result in the data set with LLHD3 [2] is “no binding”.
